Test results from patent publication US20060148715A1, “Structural requirements for STAT3 binding and recruitment to phosphotyrosine ligands” (BAYLOR COLLEGE OF MEDICINE, priority 2004, published 2006).
Where two headings read alike, the source gives them in different places. Non-standard residues stand in square brackets, D forms with d. Residues, ends and D or L forms follow the SMILES beside them. No end group written: not given here. *: point of attachment. d‑Biotin‑LC = N-terminal biotin (d-Biotin-LC), O=C(CCCC[C@@H]1SC[C@@H]2NC(=O)N[C@@H]21)NCCCCCC(=O)*; Biotin = O=C1N[C@H]2[C@H](CS[C@H]2CCCCC(=O)*)N1; pY = N[C@@H](Cc1ccc(OP(=O)(O)O)cc1)C(=O)O; Ahx = NCCCCCC(=O)O

How the values were obtained:
[1] = target: T1, wild type Stat3 (Homo sapiens, UniProt P40763); experiment: Mirror resonance affinity assay (resonant mirror biosensor); type: binding; settings: for Kd: wild type Stat3 binding to G-CSFR phosphododecapeptides, ratio kdiss/kass, read-out: KD
T1 construct: made in house; host or cells: Sf9 insect cells (baculovirus, pFastBac1)
Method: (§1) Kinetics experiments were performed using an lasys Auto+ resonant mirror biosensor (Affinity Sensor, Paramus, N.J.) (see Sadowski et. al, 1986). Briefly, two-welled cuvettes coated on the bottom of each well with biotin were purchased from Affinity Sensor and prepared for immobilization of biotinylated peptides by coating each surface with 0.04 mg/ml NeutrAvidin (Pierce) and washing with PBS-T (20 mM Na Phosphate, 0.05% Tween-20). Biotinylated peptide (5 μg) was added into each well—experimental peptide to one well and control peptide to the other—and change in arc seconds monitored simultaneously in both wells using the biosensor until stable followed by washing with PBS-T. Real-time binding of Stat3 was conducted at 25° C. at a stir speed of 70 for 10 min starting at the lowest concentration of Stat3. The wells were washed out with three changes of 60 μl PBS-T, and dissociation was allowed to proceed for 5 min. Each well bottom was regenerated by washing with […] of 100 mM formic acid for 2 min and equilibrated with PBS-T for the next round of association assay. Data were collected automatically and analyzed with the FASTplot and GraFit software (see Sheinerman et. al, 2003).
(§2) Mirror resonance affinity assay. Two cells of a biotin-coated cuvette pretreated with saturating amounts of NeutrAvidin. One well of the cuvette was pretreated with biotinylated phosphopeptide based on Y1068 (pY1068, left panel), while the other well was pretreated with biotinylated non-phosphorylated peptide Y1068 (Y1068, right panel) as a control for non-specific binding. Wild type or mutated Stat3 protein was added in the concentrations indicated to each of the two cells and mirror resonance measurements recorded continuously for 10 min as shown.
To obtain quantitative kinetic information about the binding of Stat3 to G-CSFR Y704 and Y744 including association rates (kass), disassociation rates (kdiss) and dissociation equilibrium constants (KD), real-time affinity measurements using a mirror resonance biosensor were performed. The biosensor exploits surface plasmon resonance to measure in real time the alteration in the angle of a laser light reflected from a surface upon which binding events are occurring. Biotinylated peptides were immobilized onto the bottom surface of cuvette wells pre-coated with NeutrAvidin. The interaction of peptides with Stat3 added at different concentrations was measured in real time as altered deflection of a laser light striking the bottom surface of the cuvette; the alterations in the deflection angle measured in arc seconds was analyzed with GraFit software. […] The slightly lower KD for Y704 vs. Y744 is attributable to a faster association rate of Stat3 binding to this phosphododecapeptide.

[2] = target: T2, Stat3-3M (Homo sapiens, UniProt P40763, E638L/Y640F/Y657F); experiment: as above; type: binding; settings: Stat3-3M binding to G-CSFR phosphododecapeptides; ratio kdiss/kass; read-out: KD
T2 construct: made in house; host or cells: Sf9 insect cells (baculovirus, pFastBac1)
Method: as §1, §2

[3] = target: pY1068 phosphododecapeptide (EGFR); experiment: mirror resonance biosensor, biotinylated peptide on NeutrAvidin, Stat3 in solution
[4] = target: pY704 phosphododecapeptide (G-CSFR) (human); experiment: as above
[5] = target: pY744 phosphododecapeptide (G-CSFR) (human); experiment: as above
[6] = target: T3, wild type Stat3 (recombinant human Stat3alpha with N-terminal 6-histidine tag) (human, UniProt P40763 1-770); experiment: peptide pull-down: biotinylated peptide on NeutrAvidin agarose, purified His-tagged Stat3 protein added, bound protein immunoblotted with Stat3 mAb
T3 construct: Expressed in Sf9 cells and purified on Ni-NTA for peptide assays; expressed from pcDNA3.1 in 293T cells for the G-CSFR co-immunoprecipitation; also called WT; purified Stat3

[7] = target: T4, Stat3-3M (human, UniProt P40763 1-770, limits assumed); experiment: as above
[8] = target: T5, Stat3-E638P (human, UniProt P40763 1-770); experiment: as above
T5 construct: Produced in Sf9 cells; CD spectrum essentially identical to wild type

[9] = target: T3, wild type Stat3 (recombinant human …); experiment: mirror resonance biosensor: biotinylated peptide on NeutrAvidin-coated cuvette, Stat3 protein in solution, association followed for about 10 min
Method: as §1, with “Biotinylated peptide (5 μg) was added into each well—experimental peptide to one well and control peptide to the other—and change in arc seconds monitored simultaneously in both wells using the biosensor until stable followed by washing with PBS-T. Real-time binding of Stat3 was conducted at 25° C. at a stir speed of 70 for 10 min starting at the lowest concentration of Stat3.” left out
as §2, with “binding.” for “binding. Wild type or mutated Stat3 protein was added in the concentrations indicated to each of the two cells and mirror resonance measurements recorded continuously for 10 min as shown.”

[10] = target: T5, Stat3-E638P; experiment: as above
Method: as §1, with “Biotinylated peptide (5 μg) was added into each well—experimental peptide to one well and control peptide to the other—and change in arc seconds monitored simultaneously in both wells using the biosensor until stable followed by washing with PBS-T. Real-time binding of Stat3 was conducted at 25° C. at a stir speed of 70 for 10 min starting at the lowest concentration of Stat3.” left out
as §2, with “binding.” for “binding. Wild type or mutated Stat3 protein was added in the concentrations indicated to each of the two cells and mirror resonance measurements recorded continuously for 10 min as shown.”

[11] = target: T4, Stat3-3M; experiment: peptide pull-down: biotinylated peptide on NeutrAvidin agarose, purified His-tagged Stat3 protein added, bound protein immunoblotted with Stat3 mAb; remark: listed apart in the source
[12] = target: Stat3-4M (human, UniProt P40763 1-770, limits assumed); experiment: as above
[13] = target: Stat3-6M (human, UniProt P40763 1-770, limits assumed); experiment: as above
[14] = target: T3, wild type Stat3 (recombinant human …); experiment: as above; remark: listed apart in the source
[15] = target: T5, Stat3-E638P; experiment: as above; remark: listed apart in the source
[16] = target: T3, wild type Stat3 (recombinant human …); experiment: as above; remark: listed apart in the source

T3 sequence (P40763 other isoform, or with tags, fused parts or gaps limits assumed): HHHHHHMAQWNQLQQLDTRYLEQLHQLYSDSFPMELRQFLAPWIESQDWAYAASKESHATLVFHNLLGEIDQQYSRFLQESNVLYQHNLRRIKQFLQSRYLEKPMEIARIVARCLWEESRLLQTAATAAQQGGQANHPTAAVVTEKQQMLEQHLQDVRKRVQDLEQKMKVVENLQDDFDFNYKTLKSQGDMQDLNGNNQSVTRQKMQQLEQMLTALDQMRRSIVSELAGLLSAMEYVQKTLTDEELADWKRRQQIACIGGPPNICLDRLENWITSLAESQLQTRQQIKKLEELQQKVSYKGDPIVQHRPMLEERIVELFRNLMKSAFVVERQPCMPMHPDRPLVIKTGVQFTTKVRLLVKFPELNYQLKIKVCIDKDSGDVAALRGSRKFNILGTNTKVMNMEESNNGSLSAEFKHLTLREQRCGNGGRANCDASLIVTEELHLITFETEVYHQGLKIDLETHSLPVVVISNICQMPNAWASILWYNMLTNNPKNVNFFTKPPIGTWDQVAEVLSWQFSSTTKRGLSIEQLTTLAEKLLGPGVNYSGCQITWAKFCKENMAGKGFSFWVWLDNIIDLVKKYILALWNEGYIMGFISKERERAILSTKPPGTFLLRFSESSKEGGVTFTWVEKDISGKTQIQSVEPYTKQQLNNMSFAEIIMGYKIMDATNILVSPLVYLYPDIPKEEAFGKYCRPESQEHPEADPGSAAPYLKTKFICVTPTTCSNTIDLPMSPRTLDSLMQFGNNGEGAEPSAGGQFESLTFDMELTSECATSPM
T5 sequence (P40763 other isoform, or with tags, fused parts or gaps E638P E638P limits assumed): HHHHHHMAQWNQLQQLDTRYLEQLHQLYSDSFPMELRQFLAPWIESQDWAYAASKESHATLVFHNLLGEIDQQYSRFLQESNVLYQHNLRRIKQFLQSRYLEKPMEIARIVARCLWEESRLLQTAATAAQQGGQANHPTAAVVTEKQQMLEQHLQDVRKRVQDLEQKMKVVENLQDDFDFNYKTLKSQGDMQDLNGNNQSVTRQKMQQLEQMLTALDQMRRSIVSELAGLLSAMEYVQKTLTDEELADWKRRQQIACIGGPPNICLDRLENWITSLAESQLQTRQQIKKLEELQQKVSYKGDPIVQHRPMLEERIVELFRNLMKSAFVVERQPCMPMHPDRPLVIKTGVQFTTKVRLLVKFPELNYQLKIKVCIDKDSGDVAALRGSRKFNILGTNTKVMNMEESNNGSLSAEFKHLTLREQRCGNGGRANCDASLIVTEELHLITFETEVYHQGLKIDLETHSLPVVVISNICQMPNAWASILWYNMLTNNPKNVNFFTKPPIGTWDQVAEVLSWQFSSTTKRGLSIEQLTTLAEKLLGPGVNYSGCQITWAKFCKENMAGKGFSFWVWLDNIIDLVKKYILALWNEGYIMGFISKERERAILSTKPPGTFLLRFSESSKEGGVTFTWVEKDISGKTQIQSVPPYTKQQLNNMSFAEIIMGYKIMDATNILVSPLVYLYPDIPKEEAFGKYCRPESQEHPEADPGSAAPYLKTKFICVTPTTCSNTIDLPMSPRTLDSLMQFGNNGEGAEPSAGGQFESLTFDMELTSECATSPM
T1 sequence (P40763 whole entry): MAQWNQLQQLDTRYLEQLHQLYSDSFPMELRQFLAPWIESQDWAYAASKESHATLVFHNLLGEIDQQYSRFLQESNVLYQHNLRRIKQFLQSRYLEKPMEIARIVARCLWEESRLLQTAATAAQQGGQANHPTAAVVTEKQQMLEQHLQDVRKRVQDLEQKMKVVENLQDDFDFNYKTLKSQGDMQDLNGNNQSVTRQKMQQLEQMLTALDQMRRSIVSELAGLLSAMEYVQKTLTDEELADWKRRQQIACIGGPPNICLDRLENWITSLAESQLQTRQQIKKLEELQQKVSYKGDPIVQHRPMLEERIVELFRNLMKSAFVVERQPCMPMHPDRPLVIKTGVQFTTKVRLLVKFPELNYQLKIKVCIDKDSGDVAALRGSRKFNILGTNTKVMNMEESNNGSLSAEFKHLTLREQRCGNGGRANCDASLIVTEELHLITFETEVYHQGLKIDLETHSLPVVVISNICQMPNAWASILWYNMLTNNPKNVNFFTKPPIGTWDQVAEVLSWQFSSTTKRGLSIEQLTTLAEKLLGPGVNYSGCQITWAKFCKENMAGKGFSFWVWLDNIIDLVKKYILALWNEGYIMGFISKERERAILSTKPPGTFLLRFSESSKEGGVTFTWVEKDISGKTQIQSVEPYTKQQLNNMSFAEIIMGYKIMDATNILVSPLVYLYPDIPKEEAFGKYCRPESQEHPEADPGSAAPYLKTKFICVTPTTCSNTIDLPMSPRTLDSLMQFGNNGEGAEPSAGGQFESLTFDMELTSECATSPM
T4 sequence (P40763 other isoform, or with tags, fused parts or gaps limits assumed): as the sequence (P40763 other isoform, or with tags, fused parts or gaps E638P E638P limits assumed) above, with P644L, Y646F, Y663F counted along it
T2 sequence (P40763 whole entry E638L/Y640F/Y657F): as the sequence (P40763 whole entry) above, with E638L, Y640F, Y657F counted along it
Stat3-6M, sequence (P40763 other isoform, or with tags, fused parts or gaps limits assumed): as the sequence (P40763 other isoform, or with tags, fused parts or gaps E638P E638P limits assumed) above, with P644L, Y646F, Y663F, C693A, S697A, Q698L counted along it
Stat3-4M, sequence (P40763 other isoform, or with tags, fused parts or gaps limits assumed): as the sequence (P40763 other isoform, or with tags, fused parts or gaps E638P E638P limits assumed) above, with P644E, Y663F, C693A, S697A, Q698L counted along it

`CC(C)C[C@H](NC(=O)[C@@H](NC(=O)[C@H](Cc1ccc(OP(=O)(O)O)cc1)NC(=O)[C@@H](NC(=O)[C@H](CCC(N)=O)NC(=O)[C@@H](NC(=O)[C@H](CC(C)C)NC(=O)[C@@H](NC(=O)CCCCCNC(=O)CCCC[C@@H]1SC[C@@H]2NC(=O)N[C@@H]21)[C@@H](C)O)C(C)C)[C@@H](C)O)C(C)C)C(=O)N[C@@H](CCC(N)=O)C(=O)NCC(=O)N[C@@H](CC(=O)O)C(=O)N1CCC[C@H]1C(=O)O` [compound 704, TLVQTpYVLQGDP] ({Biotin-Ahx}-TLVQT[pY]VLQGDP-OH) was tested, and the Kd [1] was 703 nM and the Kd [2] was 1210 nM.

With “LPVPE(pY)INRSVP (LPVPE[pY]INRSVP) [Y1068 Q-to-R PDP]” the “Stat3 binding in real-time resonance mirror affinity assay” value ([1]; wild type Stat3) was “undetectable”.

With “wild type Stat3 (recombinant human Stat3alpha with N-terminal 6-histidine tag) (from UniProt P40763 1-770)” the Kd [3] was 223 nM, the Kd [4] was 703 nM and the Kd [5] was 950 nM.

Molecule `CC(C)C[C@H](NC(=O)[C@H](Cc1ccc(OP(=O)(O)O)cc1)NC(=O)[C@H](Cc1c[nH]cn1)NC(=O)CNC(=O)[C@@H]1CCCN1C(=O)CNC(=O)[C@@H]1CCCN1C(=O)CCCCCNC(=O)CCCC[C@@H]1SC[C@@H]2NC(=O)N[C@@H]21)C(=O)N[C@@H](CCCNC(=N)N)C(=O)N[C@@H](CS)C(=O)N[C@@H](CC(=O)O)C(=O)N[C@@H](CO)C(=O)N[C@H](C(=O)O)[C@@H](C)O` [compound 744, PGPGHpYLRCDST] ({Biotin-Ahx}-PGPGH[pY]LRCDST-OH) has a Kd [1] of 950 nM and a Kd [2] of 1060 ± 150 nM.

B1: Y704 non-phosphorylated dodecapeptide (G-CSFR) (peptide)
peptide: {d‑Biotin‑LC}-TLVQTYVLQGDP
B1: no binding [6]; no binding [7]; no binding [8].

B2: Y1068 non-phosphorylated dodecapeptide (EGFR) (peptide)
peptide: {d‑Biotin‑LC}-LPVPEYINQSVP
notes: also called unphosphorylated Y1068 dodecapeptide
B2: no binding [9]; no binding (tested: 600 nM) [10]; no binding [11]. B2: no binding [12]; no binding [13].

B3: Y1086 non-phosphorylated dodecapeptide (EGFR) (peptide)
peptide: {d‑Biotin‑LC}-VQNPVYHNQPLN
B3: no binding [14]; no binding [11]; no binding [12]. B3: no binding [13]; no binding [15].

B4: pY704 phosphododecapeptide (G-CSFR) (peptide)
peptide: {d‑Biotin‑LC}-TLVQT[pY]VLQGDP
B4: no binding [8].

B5: pY729 phosphododecapeptide (G-CSFR) (peptide)
peptide: {d‑Biotin‑LC}-SDQVL[pY]GQLLGS
B5: no binding [6]; no binding [8].

B6: pY744 phosphododecapeptide (G-CSFR) (peptide)
peptide: {d‑Biotin‑LC}-PGPGH[pY]LRCDST
B6: no binding [8].

B7: pY764 phosphododecapeptide (G-CSFR) (peptide)
peptide: {d‑Biotin‑LC}-PSPLS[pY]ENLTFQ
B7: no binding [6]; no binding [8].

B8: pY992 (peptide)
peptide: {d‑Biotin‑LC}-TDSNF[pY]RALMDE
notes: EGFR-based control phosphopeptide; also called pY992 phosphododecapeptide (EGFR)
B8: no binding [15].

B9: pY1068 phosphododecapeptide (EGFR) (peptide)
peptide: LPVPEXINQSVP
modifications: phosphotyrosine at position 6 (EGFR Y1068); N-terminal biotin (d-Biotin-LC)
notes: also called Y1068 PDP; Y1068 phosphopeptide
B9: no binding (tested: 600 nM) [10].

B10: pY1068-E phosphododecapeptide (EGFR Y1068, +3 Q to E) (peptide)
peptide: {d‑Biotin‑LC}-LPVPE[pY]INESVP
B10: no binding [16]; no binding [15].

B11: pY1068-L phosphododecapeptide (EGFR Y1068, +3 Q to L) (peptide)
peptide: {d‑Biotin‑LC}-LPVPE[pY]INLSVP
B11: no binding [16]; no binding [15].

B12: pY1068-M phosphododecapeptide (EGFR Y1068, +3 Q to M) (peptide)
peptide: {d‑Biotin‑LC}-LPVPE[pY]INMSVP
B12: no binding [16]; no binding [15].

B13: pY1068-R phosphododecapeptide (EGFR Y1068, +3 Q to R) (peptide)
peptide: {d‑Biotin‑LC}-LPVPE[pY]INRSVP
notes: also called Y1068 Q-to-R PDP
B13: no binding [16]; no binding [15].

B14: pY1086 phosphododecapeptide (EGFR) (peptide)
peptide: {d‑Biotin‑LC}-VQNPV[pY]HNQPLN
notes: also called Y1086 PDP; Y1086 phosphopeptide
B14: no binding [15].

B15: pY1148 (peptide)
peptide: {d‑Biotin‑LC}-VGNPE[pY]LNTVQP
notes: EGFR-based phosphopeptide; also called pY1148 phosphododecapeptide (EGFR)
B15: no binding [15].

B16: pY1173 (peptide)
peptide: {d‑Biotin‑LC}-LDNPD[pY]QQDFFP
notes: EGFR-based phosphopeptide; also called pY1173 phosphododecapeptide (EGFR)
B16: no binding [15].
